Assay results published in publication doi:10.1101/2025.09.14.676173.

Assays:
[1] = biological target: S2P.BA5.VI-1147 A570C/N967C (I1) (SARS CoV-2 omicron BA.5); experiment: cross-linking
[2] = biological target: S2P.BA5.VI-1147 D571C/N967C (D17) (SARS CoV-2 omicron BA.5); experiment: cross-linking

Row | Substance | stoichiometry N [1] | stoichiometry N [2]
1 | S2P.BA5.VI-1147 A570C/N967C (I1) (domain or fragment) | 3 | –
2 | S2P.BA5.VI-1147 D571C/N967C (D17) (domain or fragment) | – | 3
